According to article PMC8000039, “Toxin-Activating Stapled Peptides Discovered by Structural Analysis Were Identified as New Therapeutic Candidates That Trigger Antibacterial Activity against Mycobacterium tuberculosis in the Mycobacterium smegmatis Model” (Microorganisms, 2021):

How the values were obtained:
[1] = CD spectroscopy, helicity calculated by CDNN software; format: physicochemical; conditions: 50 μM peptide, 10 mM potassium phosphate pH 7, 100 mM ammonium sulfate, 20 °C, average of three scans
Description: CD measurements were conducted at 20 °C using a Chirascan Plus spectropolarimeter (Applied Photophysics, Leatherhead, UK) in a cuvette with a 1 mm path length. The peptide samples were prepared at 50 μM in buffer consisting of 10 mM potassium phosphate (pH 7) and 100 mM ammonium sulfate. CD scans were taken from 180 nm to 260 nm at a speed of 100 nm/min with a 1 nm bandwidth. The helicity of each peptide was calculated by CDNN software.

[2] = tested on: VapBC26-harboring M. smegmatis; assay: Confocal microscopy of FITC-labeled peptides (cell permeability); format: cell-based, Mycobacterium smegmatis; conditions: FITC-labeled peptide 10 μM, 1 h, 37 °C, trypsin to degrade surface-bound and extracellular peptide, two independent experiments
Description: Confocal microscopy was used to assess the permeability of M. smegmatis using FITC-labeled peptides. Cultures of M. smegmatis grown in complete 7H9 medium to mid-logarithmic phase (OD600 0.3–0.5) were diluted 5-fold with Muller-Hinton broth (BD Biosciences, Franklin Lakes, NJ, USA). Diluted cell suspensions were aliquoted into Eppendorf tubes and treated with 10 μM peptide. After 1 h of incubation at 37 °C and 100 rpm, the cell suspensions were washed with PBS. If successful internalization of FITC-labeled peptides is achieved, then fluorescence will be detected in the images. Surface-bound peptides and extracellular peptides were degraded by trypsin, and thus remained fluorescence signals in the images indicate the indeed internalization of peptide. Images were acquired on a TCS8 confocal scope (Leica Microsystems, Wetzlar, Germany) with a 63× oil immersion objective.

[3] = tested on: VapBC26-expressing M. smegmatis mc2155 cells; format: cell-based, Mycobacterium smegmatis

VapC26 α4_54–65: linear α4-mimicking peptide of VapC26 (residues 54–65), from the authors' previous study (DAELAVLRELAG; UniProt O53779 54-65, looked up, fragment)
Helicity (α-helical propensity) [1]: 20.8%
cell penetration / uptake, fluorescence signal inside the cells [2]: barely observed
effect on cell growth (OD600) compared with control cells [3]: only a slight effect
